The values that follow come from US20250304673A1 (CATALYM, published 2025).

Assay [1] concerns the target T1, recombinant human GDF-15 (human, Disulfide-linked homodimer: two copies of this chain form the 24.6 kDa molecule of Table 1.).
T1 chain: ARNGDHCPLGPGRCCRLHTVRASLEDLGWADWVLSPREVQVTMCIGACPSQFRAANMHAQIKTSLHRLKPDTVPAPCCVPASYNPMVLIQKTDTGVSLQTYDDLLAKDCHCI
Briefly: cell-based or functional assay.

For another assay, the target named is T2, mouse GDF-15 (mouse, UniProt Q9Z0J7 189-303).
T2 construct: the construct used in SPR is not described; also called mGDF-15; murine GDF-15
T2 sequence (looked up): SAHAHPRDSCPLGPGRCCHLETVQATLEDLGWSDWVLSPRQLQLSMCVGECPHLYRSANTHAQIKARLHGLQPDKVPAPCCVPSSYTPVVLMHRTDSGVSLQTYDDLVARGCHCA
Briefly: SPR, Biacore T3000, antibody captured by anti-human IgG Fc, GDF-15 injected. How it is done:
(§1) Affinity of CTL-002 to recombinant human GDF-15 was determined by measuring surface plasmon resonance on a Biacore T3000. In addition, the affinity to cynomolgus rat and mouse GDF-15 was measured (see Table 2).
(§2) All experiments were performed in 10 mM HEPES buffer, pH 7.4, 150 mM NaCl, 3.4 mM EDTA and 0.05% Tween. anti-human IgG Fc specific antibody (Jackson, Order #109-005-008, Lot #111148) was covalently immobilized by EDC/NHS chemistry on Biacore CM5 Chips (GE Healthcare, Order #61144275, Lot #10236645). For kinetic characterization of the antigen-antibody interaction pulses of increasing GDF-15 concentrations (e.g. 156.3 pM, 312 pM, 625 pM, 1,250 pM) were injected at a flow rate of 30 μl/min. After each measurement cycle (8 min of association followed by 30 min of dissociation) the antibody-antigen complex was resolved by regeneration of the surface with 10 mM glycine-HCl at pH 2.0. For calculation of the dissociation constant of CTL-002 the association and dissociation phases were recorded and evaluated by global fitting using the software BIAevaluation 4.1. For global fit analysis only, these antigen concentrations were taken into account, which allowed the analysis following the Langmuir 1:1 binding model or 1:1 binding with drifting baseline.

The next assay addresses T3, rat GDF-15 (rat, UniProt Q9Z0J6 189-303, limits assumed).
T3 construct: the construct used in SPR is not described
T3 sequence (looked up): T2 sequence (looked up) with A4L, Q63L, K75R, R110Q
The assay is described as above. The procedure:
as §1, §2

Assay [2] concerns the target T1, recombinant human GDF-15. The assay is described as above. The procedure: as §1, §2
Assay [3] deals with cynomolgus GDF-15 (cynomolgus monkey). Described as above.

Changes are numbered by the printed parent chain. Numbers in names are those of the source.

The term Kd denotes the concentration at which binding is half-saturated.

B1: CTL-002 (antibody, human IgG4 S228P, kappa, V domains shown)
VH: QITLKESGPTLVKPTQTLTLTCTFSGFSLSTSGMGVSWIRQPPGKGLEWLAHIYWDDDKRYNPTLKSRLTITKDPSKNQVVLTMTNMDPVDTATYYCARSSYGAMDYWGQGTLVTVSS
VL: DIVLTQSPSFLSASVGDRVTITCKASQNVGTNVAWFQQKPGKSPKALIYSASYRYSGVPDRFTGSGSGTEFTLTISSLQPEDFAAYFCQQYNNFPYTFGGGTKLEIKR
notes: Humanized, hinge-stabilized IgG4 (IgG4 S228P) derived from mouse antibody B1-23; captured by anti-human IgG Fc on the chip in the SPR assay; also called visugromab; CTL-001 IgG4*
Consider B1, for which the “EC50 of CTL-002 in the flow-adhesion assay with T cells” value with recombinant human GDF-15 [1] was 0.707 µg/mL. Besides, the “EC50 of rescue of CD8+ T-cell adhesion, flow-adhesion assay” value in the assay with recombinant human GDF-15 [1] is approximately 0.7 µg/mL. Also, the Kd with mouse GDF-15 came to 9.76 nM; with rat GDF-15, 0.449 nM; with recombinant human GDF-15 [2], 0.0383 nM; in assay [3], 0.108 nM.
